The supplement of paper PMC10065799, “High-throughput profiling of sequence recognition by tyrosine kinases and SH2 domains using bacterial peptide display” (eLife, 2023)

Assays:
c-Src SH2 = assay: SH2 binding enrichment of the phosphorylated peptide, bacterial display (enrichment ratio); higher = better substrate or ligand; peptides without Tyr show the background
Grb2 SH2 = Grb2 SH2 (UniProt P62993); assay: as above
SHP2-C SH2 = assay: as above
MERTK = MERTK (UniProt Q12866); assay: phosphorylation enrichment, bacterial display (enrichment ratio); higher = better substrate or ligand; peptides without Tyr show the background
EPHB2 = EPHB2 (UniProt P29323); assay: as above
FGFR3 = FGFR3 (UniProt P22607); assay: as above
AncSZ = assay: as above
Fyn = Fyn (UniProt P06241); assay: as above
Hck = Hck (UniProt P08631); assay: as above
Fes = Fes (UniProt P07332); assay: as above
EPHB1 = EPHB1 (UniProt P54762); assay: as above
c-Src = assay: as above
c-Abl (mouse) = assay: as above
Jak2 = Jak2 (UniProt O60674); assay: as above
Fer (mouse) = assay: as above
FGFR1 = FGFR1 (UniProt P11362); assay: as above
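For SH2 binding enrichment of the phosphorylated peptide, bacterial display in this document: peptide library displayed on the E. coli surface as eCPX fusions, selected cells deep-sequenced, score is each peptide's frequency after selection divided by its frequency in the input.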
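For phosphorylation enrichment, bacterial display in this document: 11-residue human phosphosite peptides and single-mutation variants displayed on the E. coli surface, counted by deep sequencing, each peptide's frequency after selection divided by its frequency in the unselected input library; frequency after pTyr selection over input frequency; kinase dosed for 20-30% of maximal phosphorylation in three min.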

Sequence of EPHB2 (P29323 whole entry, looked up): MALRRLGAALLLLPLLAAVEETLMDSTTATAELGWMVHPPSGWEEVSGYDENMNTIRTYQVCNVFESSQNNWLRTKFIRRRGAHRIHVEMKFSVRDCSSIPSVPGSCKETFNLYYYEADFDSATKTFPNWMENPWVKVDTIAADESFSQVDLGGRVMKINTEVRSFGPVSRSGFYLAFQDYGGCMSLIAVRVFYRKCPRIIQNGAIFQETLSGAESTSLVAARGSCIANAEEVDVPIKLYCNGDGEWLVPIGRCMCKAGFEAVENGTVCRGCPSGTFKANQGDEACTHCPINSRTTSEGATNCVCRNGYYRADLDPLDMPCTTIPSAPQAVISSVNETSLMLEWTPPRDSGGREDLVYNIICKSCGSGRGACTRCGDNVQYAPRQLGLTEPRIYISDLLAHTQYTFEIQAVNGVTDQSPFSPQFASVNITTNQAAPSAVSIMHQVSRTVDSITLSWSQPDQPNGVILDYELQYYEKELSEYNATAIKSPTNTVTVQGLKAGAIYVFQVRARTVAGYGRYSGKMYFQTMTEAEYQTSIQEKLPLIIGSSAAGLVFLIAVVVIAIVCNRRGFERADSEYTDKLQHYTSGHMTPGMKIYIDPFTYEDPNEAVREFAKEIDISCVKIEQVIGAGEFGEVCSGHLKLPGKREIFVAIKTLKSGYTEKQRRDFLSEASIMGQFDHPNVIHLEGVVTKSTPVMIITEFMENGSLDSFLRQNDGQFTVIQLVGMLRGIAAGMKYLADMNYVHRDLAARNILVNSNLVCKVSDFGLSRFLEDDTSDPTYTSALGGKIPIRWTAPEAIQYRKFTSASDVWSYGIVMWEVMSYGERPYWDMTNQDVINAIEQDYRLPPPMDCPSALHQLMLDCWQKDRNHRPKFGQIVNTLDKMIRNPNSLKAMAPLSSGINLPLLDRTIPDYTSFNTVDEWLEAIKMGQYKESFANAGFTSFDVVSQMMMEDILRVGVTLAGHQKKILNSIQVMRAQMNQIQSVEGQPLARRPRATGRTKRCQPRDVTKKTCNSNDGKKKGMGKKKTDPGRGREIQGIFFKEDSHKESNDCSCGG
Sequence of Hck (P08631 whole entry, looked up): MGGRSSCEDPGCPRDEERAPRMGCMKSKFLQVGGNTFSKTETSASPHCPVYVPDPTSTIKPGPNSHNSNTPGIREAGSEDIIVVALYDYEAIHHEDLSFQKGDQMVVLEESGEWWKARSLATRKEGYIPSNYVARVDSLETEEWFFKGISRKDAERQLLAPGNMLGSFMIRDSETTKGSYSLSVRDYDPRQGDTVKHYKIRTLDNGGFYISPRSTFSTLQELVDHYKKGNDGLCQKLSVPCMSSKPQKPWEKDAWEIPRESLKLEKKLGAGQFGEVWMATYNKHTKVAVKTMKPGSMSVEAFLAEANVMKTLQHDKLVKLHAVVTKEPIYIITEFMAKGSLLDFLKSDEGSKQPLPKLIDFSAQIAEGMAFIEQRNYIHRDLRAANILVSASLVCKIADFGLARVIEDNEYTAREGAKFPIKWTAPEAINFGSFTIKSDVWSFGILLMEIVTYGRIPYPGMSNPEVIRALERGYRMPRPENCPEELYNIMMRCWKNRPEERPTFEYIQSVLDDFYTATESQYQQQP
Sequence of Jak2 (O60674 whole entry, looked up): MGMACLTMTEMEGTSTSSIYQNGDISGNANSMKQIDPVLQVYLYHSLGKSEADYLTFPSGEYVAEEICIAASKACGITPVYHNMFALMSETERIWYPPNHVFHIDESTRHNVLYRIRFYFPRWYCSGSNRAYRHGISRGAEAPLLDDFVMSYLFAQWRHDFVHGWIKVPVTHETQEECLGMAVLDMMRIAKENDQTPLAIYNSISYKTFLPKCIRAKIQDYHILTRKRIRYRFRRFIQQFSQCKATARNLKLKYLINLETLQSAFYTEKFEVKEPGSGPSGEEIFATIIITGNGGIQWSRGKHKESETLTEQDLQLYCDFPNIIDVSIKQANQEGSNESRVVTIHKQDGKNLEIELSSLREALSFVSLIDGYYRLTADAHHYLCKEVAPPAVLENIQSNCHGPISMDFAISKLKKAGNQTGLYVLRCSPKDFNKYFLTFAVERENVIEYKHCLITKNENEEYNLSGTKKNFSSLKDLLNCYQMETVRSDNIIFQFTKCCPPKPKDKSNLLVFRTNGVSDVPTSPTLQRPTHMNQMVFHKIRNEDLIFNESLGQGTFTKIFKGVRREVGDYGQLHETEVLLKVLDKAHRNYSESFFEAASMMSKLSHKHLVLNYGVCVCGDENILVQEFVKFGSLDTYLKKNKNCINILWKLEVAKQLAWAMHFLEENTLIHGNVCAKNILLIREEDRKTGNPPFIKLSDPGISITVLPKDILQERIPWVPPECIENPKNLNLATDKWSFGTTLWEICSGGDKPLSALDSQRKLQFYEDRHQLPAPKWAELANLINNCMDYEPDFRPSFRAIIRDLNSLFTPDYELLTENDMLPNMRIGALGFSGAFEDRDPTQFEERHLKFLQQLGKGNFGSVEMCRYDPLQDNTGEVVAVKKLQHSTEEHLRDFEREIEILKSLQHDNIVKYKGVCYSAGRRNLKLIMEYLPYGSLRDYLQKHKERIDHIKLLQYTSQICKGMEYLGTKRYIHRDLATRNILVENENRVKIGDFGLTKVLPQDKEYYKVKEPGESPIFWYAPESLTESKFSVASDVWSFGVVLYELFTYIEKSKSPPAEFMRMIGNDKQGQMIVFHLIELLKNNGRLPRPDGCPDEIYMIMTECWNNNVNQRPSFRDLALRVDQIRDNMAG
Sequence of Grb2 SH2 (P62993 whole entry, looked up): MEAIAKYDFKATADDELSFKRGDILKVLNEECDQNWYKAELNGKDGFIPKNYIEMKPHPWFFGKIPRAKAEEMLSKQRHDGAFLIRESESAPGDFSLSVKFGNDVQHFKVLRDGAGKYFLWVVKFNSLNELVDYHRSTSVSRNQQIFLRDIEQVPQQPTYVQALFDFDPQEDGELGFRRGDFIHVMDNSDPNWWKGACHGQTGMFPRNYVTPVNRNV
Sequence of EPHB1 (P54762 whole entry, looked up): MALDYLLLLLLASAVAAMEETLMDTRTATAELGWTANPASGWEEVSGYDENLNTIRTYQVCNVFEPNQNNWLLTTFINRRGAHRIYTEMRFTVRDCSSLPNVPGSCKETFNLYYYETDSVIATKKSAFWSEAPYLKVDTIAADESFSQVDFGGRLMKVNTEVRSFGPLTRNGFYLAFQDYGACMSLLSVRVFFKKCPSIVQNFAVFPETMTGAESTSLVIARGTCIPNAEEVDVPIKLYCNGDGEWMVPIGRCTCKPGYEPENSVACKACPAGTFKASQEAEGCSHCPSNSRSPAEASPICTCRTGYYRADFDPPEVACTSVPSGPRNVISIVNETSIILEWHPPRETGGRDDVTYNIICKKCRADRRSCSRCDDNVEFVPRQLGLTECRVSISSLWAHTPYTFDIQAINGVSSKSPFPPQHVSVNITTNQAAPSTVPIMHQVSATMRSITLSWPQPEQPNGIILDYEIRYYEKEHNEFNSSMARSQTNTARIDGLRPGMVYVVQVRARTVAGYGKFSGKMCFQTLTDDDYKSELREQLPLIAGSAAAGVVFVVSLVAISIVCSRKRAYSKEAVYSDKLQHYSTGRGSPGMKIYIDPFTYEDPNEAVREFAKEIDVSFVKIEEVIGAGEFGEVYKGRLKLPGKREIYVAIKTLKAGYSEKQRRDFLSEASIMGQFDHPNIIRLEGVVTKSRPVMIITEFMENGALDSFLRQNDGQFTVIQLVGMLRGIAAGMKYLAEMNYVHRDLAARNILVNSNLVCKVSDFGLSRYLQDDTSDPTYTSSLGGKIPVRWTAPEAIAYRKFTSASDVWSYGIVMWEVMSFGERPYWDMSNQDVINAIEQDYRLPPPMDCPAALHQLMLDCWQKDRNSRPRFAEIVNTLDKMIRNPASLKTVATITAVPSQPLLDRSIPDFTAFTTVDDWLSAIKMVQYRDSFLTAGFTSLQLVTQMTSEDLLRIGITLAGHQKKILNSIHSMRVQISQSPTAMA
Sequence of MERTK (Q12866 whole entry, looked up): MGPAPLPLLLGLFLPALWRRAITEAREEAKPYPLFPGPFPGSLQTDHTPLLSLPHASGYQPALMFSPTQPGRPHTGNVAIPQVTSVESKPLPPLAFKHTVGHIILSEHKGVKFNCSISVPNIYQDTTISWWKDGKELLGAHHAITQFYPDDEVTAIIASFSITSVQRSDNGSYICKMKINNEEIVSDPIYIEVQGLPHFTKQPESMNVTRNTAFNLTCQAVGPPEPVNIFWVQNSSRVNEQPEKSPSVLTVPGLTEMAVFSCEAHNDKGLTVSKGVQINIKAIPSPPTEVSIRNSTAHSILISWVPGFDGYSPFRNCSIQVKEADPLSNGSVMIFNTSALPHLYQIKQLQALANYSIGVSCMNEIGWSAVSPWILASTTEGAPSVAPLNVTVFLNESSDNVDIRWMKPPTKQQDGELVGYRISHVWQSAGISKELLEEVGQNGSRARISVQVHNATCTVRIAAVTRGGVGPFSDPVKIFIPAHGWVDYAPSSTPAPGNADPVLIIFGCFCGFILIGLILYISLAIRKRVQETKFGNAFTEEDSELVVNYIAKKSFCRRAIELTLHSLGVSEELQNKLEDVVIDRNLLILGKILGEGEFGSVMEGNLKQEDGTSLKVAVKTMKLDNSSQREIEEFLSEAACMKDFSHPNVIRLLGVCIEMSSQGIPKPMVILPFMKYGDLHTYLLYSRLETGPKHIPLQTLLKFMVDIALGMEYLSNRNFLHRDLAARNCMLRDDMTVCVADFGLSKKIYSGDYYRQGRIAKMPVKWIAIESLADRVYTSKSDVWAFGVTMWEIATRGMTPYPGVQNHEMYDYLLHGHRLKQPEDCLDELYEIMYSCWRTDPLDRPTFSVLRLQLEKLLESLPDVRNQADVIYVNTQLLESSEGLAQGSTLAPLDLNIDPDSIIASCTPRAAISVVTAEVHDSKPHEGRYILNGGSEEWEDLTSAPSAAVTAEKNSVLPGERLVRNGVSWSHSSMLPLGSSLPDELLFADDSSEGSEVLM

DCVRMYELVHR [GLE1_Y135_G130D]
SH2 binding enrichment (c-Src SH2): 2.56 | SH2 binding enrichment (Grb2 SH2): 0.925 | SH2 binding enrichment (SHP2-C SH2): 0.746 | phosphorylation enrichment (MERTK): 3.03 | phosphorylation enrichment (EPHB2): 3.53 | phosphorylation enrichment (FGFR3): 0.831 | phosphorylation enrichment (AncSZ): 1.21 | phosphorylation enrichment (Fyn): 0.754 | phosphorylation enrichment (Hck): 2.57 | phosphorylation enrichment (Fes): 1.31 | phosphorylation enrichment (EPHB1): 7.46 | phosphorylation enrichment (c-Src): 1.3 | phosphorylation enrichment (c-Abl (mouse)): 1.03 | phosphorylation enrichment (Jak2): 1.09 | phosphorylation enrichment (Fer (mouse)): 7.12 | phosphorylation enrichment (FGFR1): 0.594

HNQDGYSFLSR [LDLR_Y845_P848L_YF]
SH2 binding enrichment (c-Src SH2): 6.05 | SH2 binding enrichment (Grb2 SH2): 0.784 | SH2 binding enrichment (SHP2-C SH2): 2.83 | phosphorylation enrichment (MERTK): 0.914 | phosphorylation enrichment (EPHB2): 1 | phosphorylation enrichment (FGFR3): 0.657 | phosphorylation enrichment (AncSZ): 0.867 | phosphorylation enrichment (Fyn): 0.654 | phosphorylation enrichment (Hck): 0.841 | phosphorylation enrichment (Fes): 0.795 | phosphorylation enrichment (EPHB1): 0.837 | phosphorylation enrichment (c-Src): 0.435 | phosphorylation enrichment (c-Abl (mouse)): 0.635 | phosphorylation enrichment (Jak2): 1.25 | phosphorylation enrichment (Fer (mouse)): 0.427 | phosphorylation enrichment (FGFR1): 0.765

MDQAEYQAKIQ [DHX58_Y518_R523Q]
SH2 binding enrichment (c-Src SH2): 0.412 | SH2 binding enrichment (Grb2 SH2): 0.744 | SH2 binding enrichment (SHP2-C SH2): 0.424 | phosphorylation enrichment (MERTK): 0.519 | phosphorylation enrichment (EPHB2): 0.7 | phosphorylation enrichment (FGFR3): 0.685 | phosphorylation enrichment (AncSZ): 0.99 | phosphorylation enrichment (Fyn): 0.464 | phosphorylation enrichment (Hck): 0.555 | phosphorylation enrichment (Fes): 1.05 | phosphorylation enrichment (EPHB1): 0.563 | phosphorylation enrichment (c-Src): 0.556 | phosphorylation enrichment (c-Abl (mouse)): 0.726 | phosphorylation enrichment (Jak2): 0.743 | phosphorylation enrichment (Fer (mouse)): 0.864 | phosphorylation enrichment (FGFR1): 0.625

ADRLEYSRTGL [MMUT_Y287_G284R]
SH2 binding enrichment (c-Src SH2): 0.517 | SH2 binding enrichment (Grb2 SH2): 0.859 | SH2 binding enrichment (SHP2-C SH2): 1.14 | phosphorylation enrichment (MERTK): 0.728 | phosphorylation enrichment (EPHB2): 0.722 | phosphorylation enrichment (FGFR3): 0.651 | phosphorylation enrichment (AncSZ): 0.66 | phosphorylation enrichment (Fyn): 0.408 | phosphorylation enrichment (Hck): 0.346 | phosphorylation enrichment (Fes): 0.599 | phosphorylation enrichment (EPHB1): 0.309 | phosphorylation enrichment (c-Src): 0.459 | phosphorylation enrichment (c-Abl (mouse)): 0.498 | phosphorylation enrichment (Jak2): 1.25 | phosphorylation enrichment (Fer (mouse)): 0.338 | phosphorylation enrichment (FGFR1): 0.764

EEDPEYKKKFR [FAM161A_Y278]
SH2 binding enrichment (c-Src SH2): 0.751 | SH2 binding enrichment (Grb2 SH2): 1.14 | SH2 binding enrichment (SHP2-C SH2): 0.904 | phosphorylation enrichment (MERTK): 0.466 | phosphorylation enrichment (EPHB2): 0.441 | phosphorylation enrichment (FGFR3): 0.544 | phosphorylation enrichment (AncSZ): 1.1 | phosphorylation enrichment (Fyn): 0.61 | phosphorylation enrichment (Hck): 0.487 | phosphorylation enrichment (Fes): 0.99 | phosphorylation enrichment (EPHB1): 0.427 | phosphorylation enrichment (c-Src): 0.642 | phosphorylation enrichment (c-Abl (mouse)): 0.647 | phosphorylation enrichment (Jak2): 1.01 | phosphorylation enrichment (Fer (mouse)): 0.608 | phosphorylation enrichment (FGFR1): 0.66

EDGCIYPGTIA [SMN1_Y109_A111G]
SH2 binding enrichment (c-Src SH2): 0.619 | SH2 binding enrichment (Grb2 SH2): 0.915 | SH2 binding enrichment (SHP2-C SH2): 0.699 | phosphorylation enrichment (MERTK): 0.529 | phosphorylation enrichment (EPHB2): 0.613 | phosphorylation enrichment (FGFR3): 0.856 | phosphorylation enrichment (AncSZ): 0.947 | phosphorylation enrichment (Fyn): 0.595 | phosphorylation enrichment (Hck): 0.552 | phosphorylation enrichment (Fes): 1.25 | phosphorylation enrichment (EPHB1): 0.7 | phosphorylation enrichment (c-Src): 0.567 | phosphorylation enrichment (c-Abl (mouse)): 0.868 | phosphorylation enrichment (Jak2): 1.04 | phosphorylation enrichment (Fer (mouse)): 0.555 | phosphorylation enrichment (FGFR1): 0.553

GKSHIYFWTLE [EML2_Y230]
SH2 binding enrichment (c-Src SH2): 0.548 | SH2 binding enrichment (Grb2 SH2): 0.902 | SH2 binding enrichment (SHP2-C SH2): 0.713 | phosphorylation enrichment (MERTK): 0.669 | phosphorylation enrichment (EPHB2): 0.539 | phosphorylation enrichment (FGFR3): 1.07 | phosphorylation enrichment (AncSZ): 1.22 | phosphorylation enrichment (Fyn): 0.513 | phosphorylation enrichment (Hck): 0.538 | phosphorylation enrichment (Fes): 1.3 | phosphorylation enrichment (EPHB1): 0.588 | phosphorylation enrichment (c-Src): 0.577 | phosphorylation enrichment (c-Abl (mouse)): 0.818 | phosphorylation enrichment (Jak2): 1.3 | phosphorylation enrichment (Fer (mouse)): 0.496 | phosphorylation enrichment (FGFR1): 0.8

GLRSFYETSKM [MAGED2_Y449_YF]
SH2 binding enrichment (c-Src SH2): 0.582 | SH2 binding enrichment (Grb2 SH2): 0.933 | SH2 binding enrichment (SHP2-C SH2): 0.771 | phosphorylation enrichment (MERTK): 0.374 | phosphorylation enrichment (EPHB2): 0.342 | phosphorylation enrichment (FGFR3): 0.42 | phosphorylation enrichment (AncSZ): 0.596 | phosphorylation enrichment (Fyn): 0.331 | phosphorylation enrichment (Hck): 0.506 | phosphorylation enrichment (Fes): 0.739 | phosphorylation enrichment (EPHB1): 0.438 | phosphorylation enrichment (c-Src): 0.437 | phosphorylation enrichment (c-Abl (mouse)): 0.806 | phosphorylation enrichment (Jak2): 0.707 | phosphorylation enrichment (Fer (mouse)): 0.505 | phosphorylation enrichment (FGFR1): 0.385
